Experimental data reported in the supplement of paper PMC11246515.
± gives the standard deviation of the averaged measurements.

Assay: total protein half-life in vivo (active degradation + dilution); higher = more stable protein
[1] = E. coli NCM3722 delta-clpP delta-lon delta-hslV, growth: N-lim chemostat, doubling time 6 h
[2] = wild type E. coli NCM3722, growth: C-lim chemostat, doubling time 3 h
[3] = wild type E. coli NCM3722, growth: C-lim chemostat, doubling time 6 h
[4] = wild type E. coli NCM3722, growth: C-lim chemostat, doubling time 12 h
[5] = wild type E. coli NCM3722, growth: P-lim chemostat, doubling time 12 h
[6] = E. coli NCM3722 delta-clpP, growth: N-lim chemostat, doubling time 6 h
[7] = E. coli NCM3722 delta-lon, growth: N-lim chemostat, doubling time 6 h
[8] = E. coli NCM3722 delta-smpB, growth: N-lim chemostat, doubling time 6 h
[9] = wild type E. coli NCM3722, growth: N-lim chemostat, doubling time 6 h
[10] = wild type E. coli NCM3722, growth: N-lim chemostat, doubling time 12 h
[11] = E. coli NCM3722 delta-hslV, growth: N-lim chemostat, doubling time 6 h
[12] = wild type E. coli NCM3722, growth: P-lim chemostat, doubling time 6 h

Sequence	total protein half-life in vivo [1]	total protein half-life in vivo [2]	total protein half-life in vivo [3]	total protein half-life in vivo [4]	total protein half-life in vivo [5]	total protein half-life in vivo [6]	total protein half-life in vivo [7]	total protein half-life in vivo [8]	total protein half-life in vivo [9]	total protein half-life in vivo [10]	total protein half-life in vivo [11]	total protein half-life in vivo [12]
MSKKYIIGIDGGSQSTKVVMYDLEGNVVCEGKGLLQPMHTPDADTAEHPDDDLWASLCFAGHDLMSQFAGNKEDIVGIGLGSIRCCRALLKADGTPAAPLISWQDARVTRPYEHTNPDVAYVTSFSGYLTHRLTGEFKDNIANYFGQWPVDYKSWAWSEDAAVMDKFNIPRHMLFDVQMPGTVLGHITPQAALATHFPAGLPVVCTTSDKPVEALGAGLLDDETAVISLGTYIALMMNGKALPKDPVAYWPIMSSIPQTLLYEGYGIRKGMWTVSWLRDMLGESLIQDARAQDLSPEDLLNKKASCVPPGCNGLMTVLDWLTNPWEPYKRGIMIGFDSSMDYAWIYRSILESVALTLKNNYDNMCNEMNHFAKHVIITGGGSNSDLFMQIFADVFNLPARRNAINGCASLGAAINTAVGLGLYPDYATAVDNMVRVKDIFIPIESNAKRYDAMNKGIFKDLTKHTDVILKKSYEVMHGELGNVDSIQSWSNA	2.5 h	2.855 ± 0.0047 h	4.03 ± 0.54 h	8.14 ± 1.2 h	2.92 h	–	–	–	–	–	–	–
MIKVLIVDDEPLARENLRVFLQEQSDIEIVGECSNAVEGIGAVHKLRPDVLFLDIQMPRISGLEMVGMLDPEHRPYIVFLTAFDEYAIKAFEEHAFDYLLKPIDEARLEKTLARLRQERSKQDVSLLPENQQALKFIPCTGHSRIYLLQMKDVAFVSSRMSGVYVTSHEGKEGFTELTLRTLESRTPLLRCHRQYLVNLAHLQEIRLEDNGQAELILRNGLTVPVSRRYLKSLKEAIGL [P0AFT5]	5.88 h	3.04 ± 0.45 h	5.55 ± 0.23 h	–	10.1 ± 0.16 h	4.54 ± 0.31 h	5.56 h	3.83 h	5.02 ± 0.13 h	7.03 ± 0.46 h	–	–
MSQTVHFQGNPVTVANSIPQAGSKAQTFTLVAKDLSDVTLGQFAGKRKVLNIFPSIDTGVCAASVRKFNQLATEIDNTVVLCISADLPFAQSRFCGAEGLNNVITLSTFRNAEFLQAYGVAIADGPLKGLAARAVVVIDENDNVIFSQLVDEITTEPDYEAALAVLKA [P0A862]	5.35 ± 0.21 h	3.16 ± 0.047 h	6.01 ± 0.23 h	10.8 ± 1.2 h	13.3 ± 0.69 h	5.2 ± 0.74 h	4.96 ± 0.085 h	4.739 ± 0.047 h	5.01 ± 0.18 h	9.45 ± 1.1 h	5.25 ± 0.47 h	6.09 ± 0.53 h
MPKPGILKSKSMFCVIYRSSKRDQTYLYVEKKDDFSRVPEELMKGFGQPQLAMILPLDGRKKLVNADIEKVKQALTEQGYYLQLPPPPEDLLKQHLSVMGQKTDDTNK [P0AB43]	4.94 ± 0.22 h	2.71 ± 0.15 h	4.59 ± 0.29 h	8.2 ± 0.32 h	8.702 ± 0.013 h	4.28 ± 0.62 h	4.78 ± 0.62 h	3.88 ± 0.55 h	3.5 h	5.72 ± 0.24 h	3.56 ± 0.33 h	4.48 ± 0.068 h
MFSIQQPLLVFSDLDGTLLDSHSYDWQPAAPWLTRLREANVPVILCSSKTSAEMLYLQKTLGLQGLPLIAENGAVIQLAEQWQEIDGFPRIISGISHGEISLVLNTLREKEHFKFTTFDDVDDATIAEWTGLSRSQAALTQLHEASVTLIWRDSDERMAQFTARLNELGLQFMQGARFWHVLDASAGKDQAANWIIATYQQLSGKRPTTLGLGDGPNDAPLLEVMDYAVIVKGLNREGVHLHDEDPARVWRTQREGPEGWREGLDHFFSAR	4.98 ± 0.28 h	2.87 ± 0.076 h	5.25 ± 0.12 h	8.64 ± 0.059 h	10.5 ± 0.14 h	4.08 ± 0.42 h	4.3 ± 0.26 h	3.73 ± 0.22 h	4.167 ± 0.036 h	6.751 ± 0.019 h	4.17 ± 0.055 h	5.43 ± 0.42 h
MKKMMIATLAAASVLLAVANQAXAGATLDAVQKKGFVQCGISDGLPGFSYADADGKFSGIDVDICRGVAAAVFGDDTKVKYTPLTAKERFTALQSGEVDLLSRNTTWTSSRDAGMGMAFTGVTYYDGIGFLTHDKAGLKSAKELDGATVCIQAGTDTELNVADYFKANNMKYTPVTFDRSDESAKALESGRCDTLASDQSQLYALRIKLSNPAEWIVLPEVISKEPLGPVVRRGDDEWFSIVRWTLFAMLNAEEMGINSQNVDEKAANPATPDMAHLLGKEGDYGKDLKLDNKWAYNIIKQVGNYSEIFERNVGSESPLKIKRGQNNLWNNGGIQYAPPVR	4.74 ± 0.45 h	–	–	–	–	–	–	–	–	–	–	–
MTITSLDGYRWLKNDIIRGNFQPDEKLRMSLLTSRYALGVGPLREALSQLVAERLVTVVNQKGYRVASMSEQELLDIFDARANMEAMLVSLAIARGGDEWEADVLAKAHLLSKLEACDASEKMLDEWDLRHQAFHTAIVAGCGSHYLLQMRERLFDLAARYRFIWLRRTVLSVEMLEDKHDQHQTLTAAVLARDTARASELMRQHLLTPIPIIQQAMAGN	5.31 ± 0.62 h	1.96 ± 0.16 h	3.69 ± 0.43 h	5.04 ± 0.48 h	3.14 ± 1.1 h	2.81 ± 0.13 h	3.54 ± 0.24 h	2.18 ± 0.088 h	1.99 ± 0.21 h	2.52 ± 0.064 h	2.106 ± 0.011 h	1.56 h
MAKSLFRALVALSFLAPLWLNAAPRVITLSPANTELAFAAGITPVGVSSYSDYPPQAQKIEQVSTWQGMNLERIVALKPDLVIAWRGGNAERQVDQLASLGIKVMWVDATSIEQIANALRQLAPWSPQPDKAEQAAQSLLDQYAQLKAQYADKPKKRVFLQFGINPPFTSGKESIQNQVLEVCGGENIFKDSRVPWPQVSREQVLARSPQAIVITGGPDQIPKIKQYWGEQLKIPVIPLTSDWFERASPRIILAAQQLCNALSQVD	3.92 ± 0.45 h	–	6.08 ± 0.89 h	4.41 ± 0.44 h	12.3 ± 0.33 h	5.19 ± 0.79 h	5.93 ± 0.48 h	5.67 ± 0.72 h	5.44 ± 0.56 h	12.1 ± 1.3 h	6.42 ± 0.87 h	–
